# Reference: the supplement of paper PMC9170038
# Tested on: MS2 coat protein
# Assay: apparent KD of MS2 coat protein; designed switch direction (-1 OFF switch, 1 ON switch): -1; higher = weaker reporter binding
# How it was run: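 Stalled E. coli RNA polymerase transcribed designed RNA switches on Illumina chips, which were then titrated with SNAP-549-labelled MS2 coat protein, doubling from 0.7 or 1.5 nM to 3 µM. Steps lasted from 0.8–1.5 h at the lowest concentration to 10–20 min at the highest. The apparent KD is each design's median over clusters of curve-fitted normalised fluorescence.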
# [1] = input ligand: microRNA oligo, concentration not stated
# [2] = Eterna round: R95, input ligand: FMN 200 uM
# [3] = Eterna round: R95, input ligand: microRNA oligo, concentration not stated
# [4] = Eterna round: R95, input ligand: none
sequence,measurement,setting,value
"AAUUAUUGAUGAGGAUAUUGUGGUGAAACACGACAAGAAGGCAUUAUUCACAUGAGGAUCACCCAUGUGAGCCUGAUGCAUAUA [Ex NG1 #60] (Eterna round: R96, puzzle: Exclusion NG 1)",apparent KD of MS2 coat protein,[1],11.5 nM
"UUAAAUCAUGUAGGAUAUGCGUGGCAAAGCUAUGCAGAAGGACAUGAGGAUCACCCAUGUUCUAGCGUCUGCGUACAGAUGCUA [Mat - Exclusion NG 1 - Mod of JL - D77] (Eterna round: R96, puzzle: Exclusion NG 1)",apparent KD of MS2 coat protein,input ligand: FMN 200 uM,249 nM
same,apparent KD of MS2 coat protein,[1],34.9 nM
same,apparent KD of MS2 coat protein,input ligand: none,42.6 nM
"AGUACUAACACGUCUGUGUUAGUACAAUAAGCUUGUGAAACAUGAGGAUCACCCAUGUCCUCAUAAGCUCGUCUUAU [salish99_TOv2_r3_079] (puzzle: Sensor v3, turn-off variant 2)",apparent KD of MS2 coat protein,[2],17.2 nM
same,apparent KD of MS2 coat protein,[3],749 nM
same,apparent KD of MS2 coat protein,[4],16.1 nM
"ACAUGAGGAUCACCCAUGUCGAGUACAUGAGGAUCACCCAUGUAGGAUAUGGUUCGCUUUGCGUGCUAGAAGGAUAUGUGAUGG [salish99_ExNG3_r04_513] (Eterna round: R96, puzzle: Exclusion NG 3)",apparent KD of MS2 coat protein,input ligand: FMN 200 uM,396 nM
same,apparent KD of MS2 coat protein,[1],217 nM
same,apparent KD of MS2 coat protein,input ligand: none,329 nM
UCUUAUUGCAAGGAUAUGCAAAUUAUUUUUUAAGCAGAAGGUGCAACAUGAGGAUCACCCAUGUUUCCGGGAAA [JR_E6_Sub039] (puzzle: Exclusion 6),apparent KD of MS2 coat protein,[3],23.9 nM
"GCAGCAUAGAUGAAAGUCUGAUACAUGAGGAUCACCCAUGUACAGGAUAUGGUCUGGAUUACAGGCCAGAAGGGUACAAGCUGC [Eli exng3 - 013] (Eterna round: R96, puzzle: Exclusion NG 3)",apparent KD of MS2 coat protein,input ligand: FMN 200 uM,14.4 nM
same,apparent KD of MS2 coat protein,[1],10.6 nM
same,apparent KD of MS2 coat protein,input ligand: none,12.8 nM
"AAGAUGCGGAUAGGAUAUGGAAAAAAAAAAAGACCAGAAGGAUUGGUCAUAUAACAUGAGGAUCACCCAUGUAUAUGUUGUGAA [AK ExNG1-3] (Eterna round: R96, puzzle: Exclusion NG 1)",apparent KD of MS2 coat protein,input ligand: FMN 200 uM,17.8 nM
same,apparent KD of MS2 coat protein,[1],21.3 nM
same,apparent KD of MS2 coat protein,input ligand: none,19.3 nM
"UGGGUACUCCAUAGAAGAGACAUGAGGAUCACCCAUGUAGGACAAGCUUUUUGCUCGUCUUAAGAUGAGAGAUAGGA [JR_SV3TOV1_Sub013] (puzzle: Sensor v3, turn-off variant 1)",apparent KD of MS2 coat protein,[2],143 nM
same,apparent KD of MS2 coat protein,[3],114 nM
same,apparent KD of MS2 coat protein,[4],126 nM
CUGAUGUCAGGAUAUCAGAAAAGGUGCAAGGACGCACCAAAUGAGAAGGGACAUGAGGAUCACCCAUGUAAAAC [Maqucema] (puzzle: Exclusion 4),apparent KD of MS2 coat protein,[3],25.4 nM
"AGAAGGAAAGUGAGGAUAUGCUCUACCUCGGUAGAGCAGAAGGCACAUGAGGAUCACCCAUGUGACUCCUCAUU [Omei Ex4B B26] (Eterna round: R97, puzzle: Brourd's mod of Exclusion 4)",apparent KD of MS2 coat protein,input ligand: FMN 200 uM,29.2 nM
same,apparent KD of MS2 coat protein,input ligand: none,19.5 nM
"UGAUCUAGCGGAGGAUAUACAUGAGGAUCACCCAUGUAUAGGCUAUGACCGUAGUCGUGGCACAUGUAGAAGGCCGCUAGAUCU [JL ENG2 3.78] (Eterna round: R96, puzzle: Exclusion NG 2)",apparent KD of MS2 coat protein,input ligand: FMN 200 uM,43.7 nM
same,apparent KD of MS2 coat protein,[1],12.8 nM
same,apparent KD of MS2 coat protein,input ligand: none,15.2 nM
"UAUUAUGCAAGCAGGUCCCACAUGAGGAUCACCCAUGUGCUCGUCUUAUAAGGUACUGUGACGAAAGUCACGGUACC [Elimod 15 - Jieux - Sensor, turn-off variant 1] (Eterna round: R97, puzzle: Sensor, turn-off variant 1)",apparent KD of MS2 coat protein,input ligand: FMN 200 uM,37.6 nM
same,apparent KD of MS2 coat protein,input ligand: none,37.9 nM
"AAGUAGUGUGUGAGGAUAUUGGUGGAAUGACACAUUAAGAAGGCACAUGAGGAUCACCCAUGUGGGUAAACACG [Brourd's EX4 #22] (Eterna round: R97, puzzle: Brourd's mod of Exclusion 4)",apparent KD of MS2 coat protein,input ligand: FMN 200 uM,90 nM
same,apparent KD of MS2 coat protein,input ligand: none,33.1 nM
"ACUAGUCAUGAGGAUAUGCGAGCCAACGGGCGAGCAGAAGGCGUGACAUGAGGAUCACCCAUGUCAGUUCGCGA [eternacac ex6r4 sub31] (Eterna round: R97, puzzle: Exclusion 6)",apparent KD of MS2 coat protein,input ligand: FMN 200 uM,21.9 nM
same,apparent KD of MS2 coat protein,input ligand: none,17.4 nM
ACUAGAUGAGGAUAUGCACAUUUUAGUGUUCCUCUAGAUUAACAUGAGGAUCACCCAUGUAGAAGGCGUCAAUU [Exclusion 2 - 12] (puzzle: Exclusion 2),apparent KD of MS2 coat protein,[3],53.1 nM
"UAUAUAUAGUAAGGAUAUGUAUAUAUUUUGUAAACAGAAGGUACUGACAUGAGGAUCACCCAUGUUUUAGUGUGGGCAUGUAGA [JMF's solution 66] (Eterna round: R96, puzzle: Exclusion NG 1)",apparent KD of MS2 coat protein,[1],60.9 nM
"UGCGUUAGAGGAUAUACGUAGAACUAGGUUCAUGUAAAACUACAUGAGGAUCACCCAUGUAGAAGGCUAGCGCU [Mat - Exclusion 2 - JL Mod - D43] (Eterna round: R97, puzzle: Exclusion 2)",apparent KD of MS2 coat protein,input ligand: FMN 200 uM,20.4 nM
same,apparent KD of MS2 coat protein,input ligand: none,15.4 nM
"GAAAAGUAAGGAUAUUCACACAGUGAGGAAACUCACUGUGUGGAGAAGGUACAUGAGGAUCACCCAUGUUUCUC [ExDelusion 1 - Jieux - Exclusion 4] (Eterna round: R97, puzzle: Exclusion 4)",apparent KD of MS2 coat protein,input ligand: FMN 200 uM,229 nM
same,apparent KD of MS2 coat protein,input ligand: none,30.3 nM
GAUCGUUUAGAGGAUAUCGUGCUAAACAUUACAUGAGAAGGCUAGACAUGAGGAUCACCCAUGUAUACUCGUGA [Exclusion 6 - 8:a] (puzzle: Exclusion 6),apparent KD of MS2 coat protein,[2],23.7 nM
same,apparent KD of MS2 coat protein,[3],14.7 nM
same,apparent KD of MS2 coat protein,[4],18.7 nM
"AAGCCCUGAGGAUAUCCCAACUCGCACAUGAGGAUCACCCAUGUCCUUCUCUGGGUUUCGGGAGAAGGCAGGCCUC [Megrez-8.3] (Eterna round: R97, puzzle: Exclusion 5)",apparent KD of MS2 coat protein,input ligand: FMN 200 uM,398 nM
same,apparent KD of MS2 coat protein,input ligand: none,911 nM
"GUUGUUUAUGUAGGAUAUGCCUGGCGUGCCUUUGCAGAAGGACAUGAGGAUCACCCAUGUAUUGCGGUCUGCGUUCAGAUCGCG [salish99_ExNG1_r4_040] (Eterna round: R96, puzzle: Exclusion NG 1)",apparent KD of MS2 coat protein,input ligand: FMN 200 uM,58.3 nM
same,apparent KD of MS2 coat protein,[1],27.8 nM
same,apparent KD of MS2 coat protein,input ligand: none,30 nM
ACUAGAUGAGGAUAUGCAUAUUUUCGUGUUCUUCUAGGUUAACAUGAGGAUCACCCAUGUAGAAGGCGUCUGGA [Exclusion 2 - 21] (puzzle: Exclusion 2),apparent KD of MS2 coat protein,[3],20 nM
"GGACCGUGUGUGAGGAUAUGCUGGUCCUUGGAUCAGCAGAAGGCACAUGAGGAUCACCCAUGUGGUGUCGGUCC [Eli bmx4 4.35] (Eterna round: R97, puzzle: Brourd's mod of Exclusion 4)",apparent KD of MS2 coat protein,input ligand: FMN 200 uM,182 nM
same,apparent KD of MS2 coat protein,input ligand: none,1780 nM
"GCAAGCUUUUAGGUUUUCAACAUGAGGAUCACCCAUGUUCGUCUUGUGCUCGGGCUUGGGCGGUGUCCGGGUUUGGG [JL TOV1 3.75 sellena mod] (Eterna round: R97, puzzle: Sensor, turn-off variant 1)",apparent KD of MS2 coat protein,input ligand: FMN 200 uM,40.4 nM
same,apparent KD of MS2 coat protein,input ligand: none,43.7 nM
"ACAUGAGGAUCACCCAUGUCUGGCGGGUCCUCUCCGGCUGUUGAGGAUAUAGUCCGGUAUCCGCGCUAGAAGGUGAGGGCCGGC [Aenatbe mod 19] (Eterna round: R96, puzzle: Exclusion NG 3)",apparent KD of MS2 coat protein,input ligand: FMN 200 uM,21.8 nM
same,apparent KD of MS2 coat protein,[1],13.8 nM
same,apparent KD of MS2 coat protein,input ligand: none,23.5 nM
"AUAAUGUAAGGAUAUCAGUCGUACAGCUGCGGCUGUACGACUGAGAAGGUACAUGAGGAUCACCCAUGUGGUCA [E4/9-A3] (Eterna round: R97, puzzle: Exclusion 4)",apparent KD of MS2 coat protein,input ligand: FMN 200 uM,324 nM
same,apparent KD of MS2 coat protein,input ligand: none,694 nM
GACUGCCGAGGAUAUACAUGAGGAUCACCCAUGUGCUUCAGCAUCGAAAGAUGCAUGGGUAGAAGGCGGUAGUC [LRO-Excl3-11] (puzzle: Exclusion 3),apparent KD of MS2 coat protein,[3],25.4 nM
"AAAAGAAAGGGAGGAUAUCUGACGGGAUACCAAAGAGAAGGCCCAGGCACAUGAGGAUCACCCAUGUUCGUGCGCCUACUUAAC [Enveri] (Eterna round: R96, puzzle: Exclusion NG 1)",apparent KD of MS2 coat protein,input ligand: FMN 200 uM,28.3 nM
same,apparent KD of MS2 coat protein,[1],9.73 nM
same,apparent KD of MS2 coat protein,input ligand: none,14.4 nM
"UAUUCUGCGCUCGUCUUAUACAUGAGGAUCACCCAUGUUCUCAAGGUCUUAUGUACUGACACGAAAGUGUUAGUAAU [AK-miRNA-r3-3] (Eterna round: R97, puzzle: Sensor, turn-off variant 1)",apparent KD of MS2 coat protein,input ligand: FMN 200 uM,36.3 nM
same,apparent KD of MS2 coat protein,input ligand: none,41.6 nM
"GUAAAACAUGUAGGAUAUGCGUGGCAAAGCUAUGCAGAAGGACAUGAGGAUCACCCAUGUUAAAGCGUCUGAGUACAGAUGCAA [Mat - Exclusion NG 1 - Mod of JL - D96] (Eterna round: R96, puzzle: Exclusion NG 1)",apparent KD of MS2 coat protein,input ligand: FMN 200 uM,445 nM
same,apparent KD of MS2 coat protein,[1],27.4 nM
same,apparent KD of MS2 coat protein,input ligand: none,36 nM
"ACAUGAGGAUCACCCAUGUCGACGAAAAGGCUCAUGUAGAGUGAGGAUAUGUGAGACGAACGAGAACAGAAGGCACAAGACAGG [Deportation 4 - Jieux - Exclusion NG 3] (Eterna round: R96, puzzle: Exclusion NG 3)",apparent KD of MS2 coat protein,input ligand: FMN 200 uM,85.8 nM
same,apparent KD of MS2 coat protein,[1],58.9 nM
same,apparent KD of MS2 coat protein,input ligand: none,52.3 nM
CAGGAUAGAGGAUAUACAUAGAUACAGAUUCAUGUGGUCCUACAUGAGGAUCACCCAUGUAGAAGGCUAUCCUG [Fiskers Ex 2 - 22] (puzzle: Exclusion 2),apparent KD of MS2 coat protein,[3],180 nM
"GCAGCUUAGUUAACAGACUGUUACAUGAGGAUCACCCAUGUGCAGGAUAUGGUCUGGAUUACAGGCCAGAAGGGUACAAGCUGC [Eli exng3 - 016] (Eterna round: R96, puzzle: Exclusion NG 3)",apparent KD of MS2 coat protein,input ligand: FMN 200 uM,12.8 nM
same,apparent KD of MS2 coat protein,[1],9.37 nM
same,apparent KD of MS2 coat protein,input ligand: none,14.2 nM
GCCAGAGCAGGAUAUUCAAUAAUCCACAUGAGGAUCACCCAUGUCUAGCGAAAGCUAGAGGGAGAAGGGCUCUGGC [Mat - Exclusion 5 - Eli mod - D90] (puzzle: Exclusion 5),apparent KD of MS2 coat protein,[3],57.2 nM
